Results reported in PMC12416549 (2024).
Residue numbers refer to the chain shown, from its start. Names and notes keep the numbering of the source.

T1: TNFR1 (Homo sapiens, UniProt P19438)
T1 chain: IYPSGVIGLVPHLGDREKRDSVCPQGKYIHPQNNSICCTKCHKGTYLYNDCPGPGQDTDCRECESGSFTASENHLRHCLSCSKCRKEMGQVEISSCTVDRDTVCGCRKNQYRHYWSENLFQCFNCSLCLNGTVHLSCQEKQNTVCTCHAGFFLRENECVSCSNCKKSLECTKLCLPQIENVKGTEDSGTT

B1: L64C (designed binder)
chain: MTLQELLREEALRRAEAEAFRYALELLAEKFPEQKEYLLDLAEEIESQIRSLSGVDVEDVRKFCDKEWAWVKELLAEHPAELAEVEAARAARLAELRAEVEAKVAA
B2: E18I (designed binder)
chain: B1 chain with E18I, C64L
B3: R14W (designed binder)
chain: B1 chain with R14W, C64L
B4: A76G (designed binder)
chain: B1 chain with C64L, A76G
B5: D65N (designed binder)
chain: B1 chain with C64L, D65N
B6: D65K (designed binder)
chain: B1 chain with C64L, D65K
B7: E36S (designed binder)
chain: B1 chain with E36S, C64L
B8: A98G (designed binder)
chain: B1 chain with C64L, A98G
B9: V60W (designed binder)
chain: B1 chain with V60W, C64L
B10: V104E (designed binder)
chain: B1 chain with C64L, V104E
B11: Q4S (designed binder)
chain: B1 chain with Q4S, C64L
B12: R14E (designed binder)
chain: B1 chain with R14E, C64L
B13: S53V (designed binder)
chain: B1 chain with S53V, C64L
B14: F63S (designed binder)
chain: B1 chain with F63S, C64L
B15: A83T (designed binder)
chain: B1 chain with C64L, A83T
B16: W68R (designed binder)
chain: B1 chain with C64L, W68R
B17: A80G (designed binder)
chain: B1 chain with C64L, A80G
B18: A87D (designed binder)
chain: B1 chain with C64L, A87D
B19: G54F (designed binder)
chain: B1 chain with G54F, C64L
B20: W68G (designed binder)
chain: B1 chain with C64L, W68G
B21: A94F (designed binder)
chain: B1 chain with C64L, A94F
B22: R92L (designed binder)
chain: B1 chain with C64L, R92L
B23: E84H (designed binder)
chain: B1 chain with C64L, E84H
B24: L74V (designed binder)
chain: B1 chain with C64L, L74V
B25: E77T (designed binder)
chain: B1 chain with C64L, E77T
B26: E77F (designed binder)
chain: B1 chain with C64L, E77F
B27: D40L (designed binder)
chain: B1 chain with D40L, C64L
B28: E81A (designed binder)
chain: B1 chain with C64L, E81A
B29: L3Y (designed binder)
chain: B1 chain with L3Y, C64L
B30: R89T (designed binder)
chain: B1 chain with C64L, R89T
B31: L82M (designed binder)
chain: B1 chain with C64L, L82M
B32: A91W (designed binder)
chain: B1 chain with C64L, A91W
B33: E95H (designed binder)
chain: B1 chain with C64L, E95H
B34: K72Q (designed binder)
chain: B1 chain with C64L, K72Q
B35: A94N (designed binder)
chain: B1 chain with C64L, A94N
B36: E73L (designed binder)
chain: B1 chain with C64L, E73L
B37: W70Q (designed binder)
chain: B1 chain with C64L, W70Q
B38: E9A (designed binder)
chain: B1 chain with E9A, C64L
B39: L64S (designed binder)
chain: B1 chain with C64S
B40: V104C (designed binder)
chain: B1 chain with C64L, V104C
B41: L24Y (designed binder)
chain: B1 chain with L24Y, C64L
B42: A83D (designed binder)
chain: B1 chain with C64L, A83D
B43: Y22Q (designed binder)
chain: B1 chain with Y22Q, C64L
B44: R14D (designed binder)
chain: B1 chain with R14D, C64L
B45: S51Y (designed binder)
chain: B1 chain with S51Y, C64L
B46: R14A (designed binder)
chain: B1 chain with R14A, C64L
B47: P32F (designed binder)
chain: B1 chain with P32F, C64L
B48: E84Q (designed binder)
chain: B1 chain with C64L, E84Q
B49: A28F (designed binder)
chain: B1 chain with A28F, C64L
B50: A15C (designed binder)
chain: B1 chain with A15C, C64L
B51: E44C (designed binder)
chain: B1 chain with E44C, C64L
B52: L93S (designed binder)
chain: B1 chain with C64L, L93S
B53: E58P (designed binder)
chain: B1 chain with E58P, C64L
B54: W70N (designed binder)
chain: B1 chain with C64L, W70N
B55: L39I (designed binder)
chain: B1 chain with L39I, C64L
B56: A17N (designed binder)
chain: B1 chain with A17N, C64L
B57: Q34A (designed binder)
chain: B1 chain with Q34A, C64L
B58: E67Y (designed binder)
chain: B1 chain with C64L, E67Y
B59: A98D (designed binder)
chain: B1 chain with C64L, A98D

Biological target: T1, TNFR1
Assay: yeast display SC50

Binder | apparent Kd (screen) [nM]
B1 | 2.48
B2 | 0.539
B3 | 0.539
B4 | 0.49
B5 | 0.49
B6 | 0.539
B7 | 0.405
B8 | 0.718
B9 | 0.79
B10 | 0.653
B11 | 1.16
B12 | 0.653
B13 | 2.48
B14 | 0.956
B15 | 0.593
B16 | 2.48
B17 | 0.79
B18 | 0.49
B19 | 12.5
B20 | 0.718

Binder | apparent Kd (screen) [nM]
B21 | 0.593
B22 | 0.446
B23 | 0.869
B24 | 2.48
B25 | 0.49
B26 | 0.446
B27 | 1.4
B28 | 0.718
B29 | 0.593
B30 | 0.446
B31 | 0.49
B32 | 0.718
B33 | 0.653
B34 | 0.539
B35 | 0.653
B36 | 0.653
B37 | 15.2
B38 | 1.4
B39 | 24.4
B40 | 0.49

Binder | apparent Kd (screen) [nM]
B41 | 0.539
B42 | 0.49
B43 | 0.49
B44 | 0.335
B45 | 0.252
B46 | 0.49
B47 | 0.653
B48 | 0.869
B49 | 12.5
B50 | 0.539
B51 | 20.2
B52 | 1.05
B53 | 0.718
B54 | 18.3
B55 | 0.653
B56 | 0.593
B57 | 0.593
B58 | 3.63
B59 | 0.718
